# Where a chain is given by its changes, count along the chain named.
# T1: human GIP receptor (human) (UniProt P48546)
# T1 sequence (looked up): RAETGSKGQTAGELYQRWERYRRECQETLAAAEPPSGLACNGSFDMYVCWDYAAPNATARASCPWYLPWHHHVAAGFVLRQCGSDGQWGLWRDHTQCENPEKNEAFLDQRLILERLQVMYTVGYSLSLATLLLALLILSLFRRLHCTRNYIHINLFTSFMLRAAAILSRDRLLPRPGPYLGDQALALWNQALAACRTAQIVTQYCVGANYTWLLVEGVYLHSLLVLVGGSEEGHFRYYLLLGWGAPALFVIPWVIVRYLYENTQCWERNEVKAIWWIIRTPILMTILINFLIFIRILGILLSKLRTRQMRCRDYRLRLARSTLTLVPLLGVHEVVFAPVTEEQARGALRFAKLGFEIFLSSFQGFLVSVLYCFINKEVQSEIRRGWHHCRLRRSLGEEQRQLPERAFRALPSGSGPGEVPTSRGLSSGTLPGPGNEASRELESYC
# B1: Example 113 (peptide)
# chain: YXQGTFTSDXSRXLDKKAQXAFIEYLLAGGPSSGAPPPSGE
# modifications: synthetic construct; SITE 2: note = 2-Aminoisobutyric Acid; SITE 10: note = 3-(4-Pyridyl)-L-alanine; SITE 13: note = alpha-methyl-leucine; SITE 17: note = Lysine is chemically modified through conjugation of the epsilon-amino group of the Lysine side chain with (2-[2-(2-Amino-ethoxy)-ethoxy]-acetyl)
# B2: Example 114 (peptide)
# chain: B1 chain with A28E, G29X
# modifications: synthetic construct; SITE 2: note = 2-Aminoisobutyric Acid; SITE 10: note = 3-(4-Pyridyl)-L-alanine; SITE 13: note = alpha-methyl-leucine; SITE 17: note = Lysine is chemically modified through conjugation of the epsilon-amino group of the Lysine side chain with (2-[2-(2-Amino-ethoxy)-ethoxy]-acetyl)
# B3: Example 115 (peptide)
# chain: B1 chain with R12X, Y25W, A28E, A35E
# modifications: synthetic construct; SITE 2: note = 2-Aminoisobutyric Acid; SITE 10: note = 3-(4-Pyridyl)-L-alanine; SITE 12: note = L-ornithine; SITE 13: note = alpha-methyl-leucine; SITE 17: note = Lysine is chemically modified through conjugation of the epsilon-amino group of the Lysine side chain with (2-[2-(2-
# B4: Example 116 (peptide)
# chain: YXQGTFTSDFSXXLDKKAQXAFIEYLLEAGPSSGEPPPSEG
# modifications: synthetic construct; SITE 2: note = 2-Aminoisobutyric Acid; SITE 12: note = L-ornithine; SITE 13: note = alpha-methyl-leucine; SITE 17: note = Lysine is chemically modified through conjugation of the epsilon-amino group of the Lysine side chain with (2-[2-(2-Amino-ethoxy)-ethoxy]-acetyl)2-(gamma-Glu)
# B5: Example 117 (peptide)
# chain: B4 chain with E40G, G41E
# modifications: synthetic construct; SITE 2: note = 2-Aminoisobutyric Acid; SITE 12: note = L-ornithine; SITE 13: note = alpha-methyl-leucine; SITE 17: note = Lysine is chemically modified through conjugation of the epsilon-amino group of the Lysine side chain with (2-[2-(2-Amino-ethoxy)-ethoxy]-acetyl)2-(gamma-Glu)
# B6: Example 118 (peptide)
# chain: B4 chain with A29G, E35A, S39G, G41S
# modifications: synthetic construct; SITE 2: note = 2-Aminoisobutyric Acid; SITE 12: note = L-ornithine; SITE 13: note = alpha-methyl-leucine; SITE 17: note = Lysine is chemically modified through conjugation of the epsilon-amino group of the Lysine side chain with (2-[2-(2-Amino-ethoxy)-ethoxy]-acetyl)2-(gamma-Glu)
# B7: Example 121 (peptide)
# chain: YXQGTFTSDFSXXLDKKAQXAFIEWLLEGGPSSGAPPPEGS
# modifications: synthetic construct; SITE 2: note = 2-Aminoisobutyric Acid; SITE 12: note = L-ornithine; SITE 13: note = alpha-methyl-leucine; SITE 17: note = Lysine is chemically modified through conjugation of the epsilon-amino group of the Lysine side chain with (2-[2-(2-Amino-ethoxy)-ethoxy]-acetyl)-(gamma-Glu)
# B8: Example 122 (peptide)
# chain: B7 chain with P31H, E39S, S41E
# modifications: synthetic construct; SITE 2: note = 2-Aminoisobutyric Acid; SITE 12: note = L-ornithine; SITE 13: note = alpha-methyl-leucine; SITE 17: note = Lysine is chemically modified through conjugation of the epsilon-amino group of the Lysine side chain with (2-[2-(2-Amino-ethoxy)-ethoxy]-acetyl)-(gamma-Glu)
# B9: Example 125 (peptide)
# chain: B7 chain with P31E
# modifications: synthetic construct; SITE 2: note = 2-Aminoisobutyric Acid; SITE 12: note = L-ornithine; SITE 13: note = alpha-methyl-leucine; SITE 17: note = Lysine is chemically modified through conjugation of the epsilon-amino group of the Lysine side chain with (2-[2-(2-Amino-ethoxy)-ethoxy]-acetyl)-(gamma-Glu)
# Biological target: human GLP-1R (SNAP-GLP-1R expressed in HEK293 cells) (human) (UniProt P43220)
# Sequence (P43220 24-463): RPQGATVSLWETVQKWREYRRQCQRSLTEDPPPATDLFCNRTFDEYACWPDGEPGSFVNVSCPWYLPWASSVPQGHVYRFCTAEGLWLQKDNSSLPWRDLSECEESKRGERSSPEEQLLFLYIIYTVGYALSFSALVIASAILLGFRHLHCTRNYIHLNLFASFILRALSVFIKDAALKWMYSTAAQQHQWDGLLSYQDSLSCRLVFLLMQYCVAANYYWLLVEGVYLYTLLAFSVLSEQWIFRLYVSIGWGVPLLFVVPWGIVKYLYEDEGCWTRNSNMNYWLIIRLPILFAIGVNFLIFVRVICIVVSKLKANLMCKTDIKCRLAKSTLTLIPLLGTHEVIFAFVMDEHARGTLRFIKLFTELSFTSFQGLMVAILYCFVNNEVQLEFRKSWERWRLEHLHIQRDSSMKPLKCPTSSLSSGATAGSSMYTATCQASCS
# Test: cell-based or functional assay
Binder,GLP1R Internalization EC50,Internalization % TOP
B1,39.5 nM,64.6%
B2,47.2 nM,62.9%
B3,255 nM,56.5%
B4,80.7 nM,46.2%
B5,45.5 nM,51%
B6,82.3 nM,46.4%
B7,38.1 nM,46.3%
B8,57.4 nM,43.7%
B9,86.4 nM,42.6%

# Biological target: hGLP-1R (Homo sapiens, UniProt P43220)
# Sequence (P43220 24-463): as above
# Test: cell-based or functional assay
Binder,Relative cAMP EC50,"cAMP Rel EC50, nM (in the presence of 1% HSA)"
B1,3.93 nM,467 nM
B2,,1370 nM
B3,7.6 nM,1460 nM
B4,7.83 nM,401 nM
B5,6.4 nM,524 nM
B6,6.03 nM,1450 nM
B7,2.38 nM,348 nM
B8,3.93 nM,468 nM
B9,4.12 nM,1050 nM

# Biological target: human glucagon receptor (human) (UniProt P47871)
# Sequence (P47871 26-477): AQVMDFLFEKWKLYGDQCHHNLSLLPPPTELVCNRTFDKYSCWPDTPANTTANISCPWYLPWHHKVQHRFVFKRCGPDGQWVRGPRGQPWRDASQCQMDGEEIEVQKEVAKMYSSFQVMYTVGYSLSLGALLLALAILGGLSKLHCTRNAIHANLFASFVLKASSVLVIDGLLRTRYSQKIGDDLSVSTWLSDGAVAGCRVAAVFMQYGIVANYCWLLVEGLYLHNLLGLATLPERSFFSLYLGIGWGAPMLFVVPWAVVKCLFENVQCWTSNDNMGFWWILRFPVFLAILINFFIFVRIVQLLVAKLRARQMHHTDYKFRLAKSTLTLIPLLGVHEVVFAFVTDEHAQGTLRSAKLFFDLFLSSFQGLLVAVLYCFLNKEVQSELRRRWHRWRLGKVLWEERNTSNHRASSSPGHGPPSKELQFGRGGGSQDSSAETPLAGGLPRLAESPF
# Test: cell-based or functional assay
Binder,Relative cAMP EC50,"cAMP Rel EC50, nM (in the presence of 1% HSA)"
B1,12 nM,2090 nM
B2,,1120 nM
B3,10.6 nM,2210 nM
B4,3.96 nM,882 nM
B5,4.75 nM,867 nM
B6,7.02 nM,2460 nM
B7,4.89 nM,442 nM
B8,3.95 nM,548 nM
B9,3.97 nM,901 nM

# Biological target: T1, human GIP receptor (human)
# Test: cell-based or functional assay
Binder,Relative cAMP EC50,"cAMP Rel EC50, nM (in the presence of 1% HSA)"
B1,0.24 nM,32.3 nM
B2,,19.6 nM
B3,0.457 nM,73.9 nM
B4,0.382 nM,40.4 nM
B5,0.267 nM,29.9 nM
B6,0.43 nM,63.4 nM
B7,0.172 nM,24.6 nM
B8,0.189 nM,32.6 nM
B9,0.503 nM,67.8 nM

# — patent US20240270821A1, “GIP/GLP1/GCG TRI-RECEPTOR AGONISTS AND USES THEREOF” (priority 2023, published 2024)
